# Measurements published in patent publication EP1379283B1, “IDENTIFICATION OF TARGET-SPECIFIC FOLDING SITES IN PEPTIDES AND PROTEINS” (Palatin Technologies, Inc., priority 2000, dated 2002).
# Square brackets hold non-standard residues; d marks the D form. Ends that are not written are not given here. * marks the point of attachment. Cyclohexylacetyl(1-SH) = O=C(CC1(S)CCCCC1)*; Cyclohexylacetyl = O=C(CC1CCCCC1)*; dChg = N[C@@H](C(=O)O)C1CCCCC1; Chg = N[C@H](C(=O)O)C1CCCCC1; Nle = CCCC[C@H](N)C(=O)O; Orn = NCCC[C@H](N)C(=O)O; Dap = NC[C@H](N)C(=O)O
# B1: Re-complexed Ac-Nle-Ala-His-D-Phe-Cys-Arg-Trp-NH2 (peptide)
# peptide: Ac-[Nle]AH[dF]CRW-NH2
# modifications: bridge (positions not given here) via ReOCl3(PPh3)2; also: oxorhenium(V) metal complex
# B2: Re-complexed Ac-Nle-Ala-His-Cys-D-Phe-Arg-Trp-NH2 (peptide)
# peptide: Ac-[Nle]AHC[dF]RW-NH2
# modifications: bridge (positions not given here) via ReOCl3(PPh3)2; also: oxorhenium(V) metal complex
# B3: Re-complexed Ac-Nle-Ala-Cys-His-D-Phe-Arg-Trp-NH2 (peptide)
# peptide: Ac-[Nle]ACH[dF]RW-NH2
# modifications: bridge (positions not given here) via ReOCl3(PPh3)2; also: oxorhenium(V) N3S1 metal chelate (X-X-Cys)
# B4: Re-complexed Ac-Nle-Ala-His-D-Phe-Arg-Trp-Cys-NH2 (peptide)
# peptide: Ac-[Nle]AH[dF]RWC-NH2
# modifications: bridge (positions not given here) via ReOCl3(PPh3)2; also: oxorhenium(V) metal complex
# B5: Re-complexed Caca-D-Trp-Ile-Cys-Thr-Dap-Ala-Pro-Orn-NH2 (peptide)
# peptide: Cyclohexylacetyl-[dW]ICT[Dap]AP[Orn]-NH2
# modifications: not fully specified (bridges); printed as Caca-D-*Trp-Ile-Cys*-Thr-Dap-Ala-Pro-Orn-NH₂; numbers in words are those of the source; also: Cys4 complexed to rhenium-oxo (Re=O)
# B6: Re-complexed Caca-D-Trp-Ile-Thr-Dap-Ala-Ala-Cys-Orn-NH2 (peptide)
# peptide: Cyclohexylacetyl-[dW]IT[Dap]AAC[Orn]-NH2
# modifications: numbers in words are those of the source; also: rhenium-oxo (Re(V)=O) complex at Cys8
# B7: Re-complexed Caca-D-Trp-Ile-Thr-Dap-Ala-Cys-Ala-Orn-NH2 (peptide)
# peptide: Cyclohexylacetyl-[dW]IT[Dap]ACA[Orn]-NH2
# modifications: not fully specified (bridges); printed as Caca-D-Trp-Ile-Thr-*Dap-Ala-Cys*-Ala-Orn-NH₂; numbers in words are those of the source; also: Cys7 complexed to rhenium-oxo (Re=O)
# B8: Re-complexed D-Chg-D-Trp-Cys-Ile-Thr-Dap-Ala-Pro-Orn-NH2 (peptide)
# peptide: [dChg][dW]CIT[Dap]AP[Orn]-NH2
# modifications: bridge (positions not given here); not fully specified (bridges); printed as Re-complexed D-Chg-D-Trp-Cys-Ile-Thr-Dap-Ala-Pro-Orn-NH2; also: oxorhenium(V) metal complex
# B9: Re-complexed Caca-D-Trp-Ile-Thr-Dap-Ala-Cys-Pro-Orn-NH2 (peptide)
# peptide: Cyclohexylacetyl-[dW]IT[Dap]ACP[Orn]-NH2
# modifications: not fully specified (bridges); printed as Caca-D-Trp-Ile-Thr-*Dap-Ala-Cys*-Pro-Orn-NH₂; numbers in words are those of the source; also: Cys7 complexed to rhenium-oxo (Re=O)
# B10: Re-complexed Caca-D-Trp-Ile-Thr-Dap-Cys-Ala-Pro-Orn-NH2 (peptide)
# peptide: Cyclohexylacetyl-[dW]IT[Dap]CAP[Orn]-NH2
# modifications: not fully specified (bridges); printed as Caca-D-Trp-Ile-*Thr-Dap-Cys*-Ala-Pro-Orn-NH₂; numbers in words are those of the source; also: Cys6 complexed to rhenium-oxo (Re=O)
# B11: Re-complexed Caca-D-Trp-Ile-Thr-Cys-Dap-Ala-Pro-Orn-NH2 (peptide)
# peptide: Cyclohexylacetyl-[dW]ITC[Dap]AP[Orn]-NH2
# modifications: not fully specified (bridges); printed as Caca-D-Trp-*Ile-Thr-Cys*-Dap-Ala-Pro-Orn-NH₂; numbers in words are those of the source; also: Cys5 complexed to rhenium-oxo (Re=O)
# B12: Re-complexed Caca-D-Trp-Ile-Thr-Dap-Ala-Ala-Orn-Cys-NH2 (peptide)
# peptide: Cyclohexylacetyl-[dW]IT[Dap]AA[Orn]C-NH2
# modifications: numbers in words are those of the source; also: rhenium-oxo (Re(V)=O) complex at Cys9
# B13: Re-complexed Pmp-D-Trp-Cys-Ile-Thr-Dap-Ala-Pro-Orn-NH2 (peptide)
# peptide: {Cyclohexylacetyl(1-SH)}-[dW]CIT[Dap]AP[Orn]-NH2
# modifications: not fully specified (bridges); printed as *Pmp-D-Trp-Cys*-Ile-Thr-Dap-Ala-Pro-Orn-NH₂; numbers in words are those of the source; also: Cys3 complexed to rhenium-oxo (Re=O)
# B14: Re-complexed Chg-D-Trp-Cys-Ile-Thr-Dap-Ala-Pro-Orn-NH2 (peptide)
# peptide: [Chg][dW]CIT[Dap]AP[Orn]-NH2
# modifications: not fully specified (bridges); printed as Re-complexed Chg-D-Trp-Cys-Ile-Thr-Dap-Ala-Pro-Orn-NH2; also: Cys3 complexed to rhenium-oxo (Re=O)
# B15: Re-complexed Ac-Nle-Ala-His-D-Phe-Arg-Cys-Trp-NH2 (peptide)
# peptide: XAHFRCW
# modifications: N-terminal acetyl; X at 1 = Nle; D-Phe at 4; Cys 6 complexed to a rhenium-oxo (Re) metal ion; C-terminal amide
# Molecular target: hMC5-R (human) (UniProt P33032)
# Assay: competition with 0.4 nM 125I-NDP-alpha-MSH on hMC5-R membranes, metallopeptide at 1 µM
# Sequence of hMC5-R (human) (P33032 whole entry): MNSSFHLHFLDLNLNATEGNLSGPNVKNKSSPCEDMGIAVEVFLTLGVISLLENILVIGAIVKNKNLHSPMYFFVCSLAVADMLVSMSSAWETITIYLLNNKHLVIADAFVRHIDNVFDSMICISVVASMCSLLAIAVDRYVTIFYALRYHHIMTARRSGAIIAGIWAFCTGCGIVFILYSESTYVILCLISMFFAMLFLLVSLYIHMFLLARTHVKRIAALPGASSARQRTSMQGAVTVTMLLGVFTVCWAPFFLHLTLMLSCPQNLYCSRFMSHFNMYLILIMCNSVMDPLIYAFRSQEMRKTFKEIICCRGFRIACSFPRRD
row,% Inhibition at 1 µM [%],Binder
1,57,B1
2,58,B2
3,64,B3
4,93,B4

# Molecular target: hMC3-R (human) (UniProt P41968)
# Assay: competition with 0.4 nM 125I-NDP-alpha-MSH on hMC3-R membranes, metallopeptide at 1 µM
# Sequence of hMC3-R (human) (P41968 whole entry): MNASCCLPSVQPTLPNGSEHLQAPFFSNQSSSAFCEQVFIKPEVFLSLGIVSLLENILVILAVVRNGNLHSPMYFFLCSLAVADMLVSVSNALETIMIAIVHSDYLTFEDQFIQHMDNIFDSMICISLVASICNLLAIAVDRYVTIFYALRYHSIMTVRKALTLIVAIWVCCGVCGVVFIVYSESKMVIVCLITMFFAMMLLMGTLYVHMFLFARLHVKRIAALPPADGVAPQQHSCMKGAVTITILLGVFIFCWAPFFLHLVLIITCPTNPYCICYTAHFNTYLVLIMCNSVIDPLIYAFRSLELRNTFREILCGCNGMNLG
row,% Inhibition at 1 µM [%],Binder
1,15,B1
2,9,B2
3,47,B3
4,70,B4

# Molecular target: vasopressin-1 receptor of rat liver cell membranes (rat) (UniProt P30560)
# Assay: competition with 3H-vasopressin-1 antagonist on rat liver membranes, metallopeptide at 1 µM
# Sequence of vasopressin-1 receptor of rat liver cell membranes (rat) (P30560 whole entry): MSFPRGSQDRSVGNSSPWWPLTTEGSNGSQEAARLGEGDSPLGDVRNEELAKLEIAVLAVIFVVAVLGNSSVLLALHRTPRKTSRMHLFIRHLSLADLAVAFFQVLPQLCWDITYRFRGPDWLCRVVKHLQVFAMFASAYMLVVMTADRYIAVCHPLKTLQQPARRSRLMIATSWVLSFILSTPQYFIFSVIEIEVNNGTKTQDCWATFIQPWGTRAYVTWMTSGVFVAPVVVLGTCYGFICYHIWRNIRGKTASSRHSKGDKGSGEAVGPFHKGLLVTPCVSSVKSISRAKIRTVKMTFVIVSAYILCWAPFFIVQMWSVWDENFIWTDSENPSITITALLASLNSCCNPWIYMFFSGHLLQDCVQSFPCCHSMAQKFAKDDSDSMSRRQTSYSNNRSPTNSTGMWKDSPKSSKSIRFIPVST
row,% Inhibition at 1 µM [%],Binder
1,52,B5
2,0,B6
3,0,B7
4,8,B8
5,0,B9
6,22,B10
7,0,B11
8,23,B12
9,23,B13
10,0,B14

# Molecular target: oxytocin receptor of rat uterus cell membranes (rat) (UniProt P70536)
# Assay: competition with 3H-oxytocin on rat uterus membranes, metallopeptide at 1 µM
# Sequence of oxytocin receptor of rat uterus cell membranes (rat) (P70536 whole entry): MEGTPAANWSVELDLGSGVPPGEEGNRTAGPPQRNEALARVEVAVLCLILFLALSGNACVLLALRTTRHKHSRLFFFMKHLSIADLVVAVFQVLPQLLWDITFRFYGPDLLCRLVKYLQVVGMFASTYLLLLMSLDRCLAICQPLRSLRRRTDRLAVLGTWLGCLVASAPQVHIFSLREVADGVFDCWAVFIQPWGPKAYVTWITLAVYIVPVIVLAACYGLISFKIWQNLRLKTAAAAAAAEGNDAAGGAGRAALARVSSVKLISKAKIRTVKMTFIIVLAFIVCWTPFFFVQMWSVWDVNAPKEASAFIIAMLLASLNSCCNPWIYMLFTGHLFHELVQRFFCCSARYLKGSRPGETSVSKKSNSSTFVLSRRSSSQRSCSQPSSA
row,% Inhibition at 1 µM [%],Binder
1,0,B5
2,0,B6
3,0,B7
4,0,B8
5,0,B9
6,9,B10
7,0,B11
8,0,B12
9,0,B13
10,0,B14

# Molecular target: hMC4-R (human) (UniProt P32245)
# Assay: competition with 0.4 nM 125I-NDP-alpha-MSH on hMC4-R membranes, metallopeptide at 1 µM
# Sequence of hMC4-R (human) (P32245 whole entry): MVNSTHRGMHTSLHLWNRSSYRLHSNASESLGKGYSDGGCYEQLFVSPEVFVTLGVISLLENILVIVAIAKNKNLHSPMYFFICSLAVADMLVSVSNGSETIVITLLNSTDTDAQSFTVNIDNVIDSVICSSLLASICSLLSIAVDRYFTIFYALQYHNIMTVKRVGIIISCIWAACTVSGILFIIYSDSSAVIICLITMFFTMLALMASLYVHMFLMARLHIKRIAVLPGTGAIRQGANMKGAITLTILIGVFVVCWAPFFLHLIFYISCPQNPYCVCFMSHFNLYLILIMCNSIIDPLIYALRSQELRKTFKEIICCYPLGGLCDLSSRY
row,% Inhibition at 1 µM [%],Binder
1,66,B1
2,75,B2
3,71,B3
4,98,B4

# Molecular target: MC1-R of B-16 mouse melanoma cells (mouse) (UniProt Q01727)
# Assay: competition with 0.4 nM 125I-NDP-alpha-MSH on B-16 mouse melanoma cell membranes, metallopeptide at 1 µM
# Sequence of MC1-R of B-16 mouse melanoma cells (mouse) (Q01727 whole entry): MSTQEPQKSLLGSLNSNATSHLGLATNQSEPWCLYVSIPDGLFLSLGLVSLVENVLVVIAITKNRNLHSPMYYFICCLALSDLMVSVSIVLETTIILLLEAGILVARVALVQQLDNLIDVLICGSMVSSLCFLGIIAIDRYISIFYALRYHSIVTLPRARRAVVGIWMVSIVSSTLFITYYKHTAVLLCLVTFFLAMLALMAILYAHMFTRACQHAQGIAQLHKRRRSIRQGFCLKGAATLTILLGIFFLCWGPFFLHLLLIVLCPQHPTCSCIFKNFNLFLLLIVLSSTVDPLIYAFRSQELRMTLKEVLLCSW
row,% Inhibition at 1 µM [%],Binder
1,93,B1
2,96,B15
3,84,B2
4,96,B3
5,91,B4
